Assay [1] concerns the target T1, PfCSP junctional region peptide, biotinylated (NPDPNANPNVDPNANP) (Plasmodium falciparum, also: biotin label, end not given here).
T1 peptide: NPDPNANPNVDPNANP
The assay can be described thus: BLI. In general terms: Biolayer interferometry detects binding as a change in optical thickness at a sensor tip.

Assay [2] has as its target T2, PfCSP major repeat region peptide NPNA3, biotinylated (Plasmodium falciparum, also: biotin label, end not given here).
T2 peptide: NPNANPNANPNA
The assay can be described thus: BLI.

Assay [3] deals with T3, PfCSP minor repeat region peptide, biotinylated (NVDPNANPNVDPNANPNVDP) (Plasmodium falciparum, biotinylated (end not stated)).
T3 peptide: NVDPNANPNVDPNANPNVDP
The assay can be described thus: BLI.

The target of assay [4] is T4, PfCSP N-terminal junctional region peptide, biotinylated (KQPADGNPDPNANPNV) (Plasmodium falciparum 3D7, also: biotinylated, end not given here).
T4 construct: Plasmodium falciparum circumsporozoite protein (PfCSP), N-terminal junctional region; source: synthetic peptide, bought: Innopep Inc
T4 chain: KQPADGNPDPNANPNV
Nature of the assay: BLI; biotinylated peptides (10 ug/mL) loaded on streptavidin biosensors; Fabs in solution at 200, 100, 50, 25, 12.5 nM; kinetics buffer 1X PBS, 0.01% BSA, 0.002% Tween 20; 300 s association, 300 s dissociation; Octet Red; 1:1 global fit. The settings on record: both partners purified.

The target in assay [5] is T5, PfCSP junctional region peptide, biotinylated (NPDPNANPNVDPNANP) (Plasmodium falciparum 3D7, also: biotinylated, end not given here).
T5 construct: Plasmodium falciparum circumsporozoite protein (PfCSP), junctional region; source: synthetic peptide, bought: Innopep Inc
T5 chain: NPDPNANPNVDPNANP
Described as above. The settings on record: both partners purified.

Assay [6] concerns the target T6, PfCSP N-terminal junctional region peptide, biotinylated (KQPADGNPDPNANPNV) (Plasmodium falciparum, also: biotin label, end not given here).
T6 peptide: KQPADGNPDPNANPNV
Nature of the assay: BLI.

Changes are numbered by the printed parent chain. Ends that are not written are not given here.

B1: Fab 224 (antigen-binding fragment of mAb AB000224) (Fab, V domains shown)
VH: EVQLVESGGGLVQPGRSLRLPCTASGFSFGDHAMSWVRQAPGKGLEWVGFIRKTTYGATTHYAAAVRGRFTISRDDSKSIVYLQMNSLKTEDTAVYFCTRVQLDYGPGYQYYGMDVWGQGTTVTVSS
VL: ESVLTQPPSVSGAPGQRVTISCTGMNSNIGAGYDVYWYQQLPGRAPKLLIYGNSNRPSGVPDRFSGSRSGTSASLAITGLQAEDEADYYCQSYDTSLNGWAFGGGTKLTVL
notes: Fab 224 heavy chain (IGHV3-49) is in PDB 6WFY (cited) and PDB 9NOB (apo, deposited here); Fab 224 light chain (IGLV1-40) is in PDB 6WFY (cited) and PDB 9NOB (apo, deposited here); IGHV3-49/IGLV1-40; the expression methods name only the Fab genes of MAM01, 7088 and MS-1805, not Fab 224
For orientation: Kd means the concentration at which binding is half-saturated. For the molecule B1, the values for the Kd in assay [1], in assay [2] and in assay [3] were 72 nM, 3.5 nM and 2.9 nM, respectively. The binding result in assay [4] was “no binding (tested: 200 nM)”.

B2: Fab MAM01 (engineered AB000224) (Fab, V domains shown)
VH: B1 VH with P21S, I80T, T90A, T99A
VL: B1 VL with E1Q, R44T
notes: as the heavy chain of m1 (Fab 224, PDB 6WFY) with the stated framework changes (Kabat numbering); as the light chain of m1 (Fab 224, PDB 6WFY) with the stated changes (Kabat numbering); Fab only; the LS mutations of the Fc are not part of it; also called MS-1797; MAM01 Fab; source: ExpiCHO cells, purified (HiTrap Protein G HP, size exclusion chromatography)
On to B2, for which the Kd is 4.1 nM in assay [2], 3.5 nM in assay [3] and 108 nM in assay [5]. For the same molecule, the binding result in assay [4] is reported as “no binding (tested: 200 nM)”.

B3: Fab MS-1805 (engineered AB007088) (Fab, V domains shown)
VH: QVQLVESGGGVVQPGRSLRLSCAASGFTFNTYGMHWVRQAPGKGLEWVAIIWYDGSQKYYADSVQGRFTISRDNHKNTLYLQMNSLRAEDTAVYFCVRVRFSVGPHGSAFDLWGQGTMVTVSS
VL: GVQMTQSPSTLSASVGDRVTLTCRASQSISSWLAWYQQKPGKAPKLLIYDASSLESGVPSRFSGSGSGTEFTLTISSLQPDDFATYYCQQYNSYSFWTFGQGTKVEIK
Regarding B3, the Kd in assay [6] amounted to 23 nM; in assay [1], 20 nM; in assay [2] it was 25 nM; in assay [3], 28 nM.

B4: Fab 7088 (antigen-binding fragment of mAb AB007088) (Fab, V domains shown)
VH: B3 VH with T28A, A40T, T69I, Y80S, S85G, T120I
VL: B3 VL
With B4, the Kd was found to be 15 nM in assay [6], 16 nM in assay [1], 15 nM in assay [2] and 20 nM in assay [3].

For the origin of these results see doi:10.1101/2025.08.24.672003, “Structural characterization of MAM01 and other cost-effective engineered monoclonal antibodies for malaria prevention” (bioRxiv, 2025).
